Results taken from the DeepSol protein solubility set.

assay: soluble on expression in E. coli; label from the status in PepcDB or PDB records

Sequence	soluble on expression in E. coli
MESKVERYVENYVVTKNTMALLPVILSEKKIVTRVVEMNDSFFVFQKPLDIIERSCRKHGSSFLGRKEGTKELTHITHKAPIAISPADQLYFFPTYSYSRKECAWLSHFYIESNKELKDGNLIIRFINGFAVKLEISKTSFENQQNRTAKLRTEYEDRRKKQGNPCFKEVDKKEESTLRPAYESVYFVKEGEV	not soluble
SHMAIVKVTDADFDSKVESGVQLVDFWATACGPCKMIAPVLEELAADYEGKADILKLDVDENPSTAAKYEVMSIPTLIVFKDGQPVDKVVGFQPKENLAEVLDKHL	soluble
MGSDKIHHHHHHMSGIRLVRAKITYLHDSCTFNFINENMSVKLLWSVPYRGDRMITYESVYPIQSKDVAKLIITKVRNNPKTLSVFDRSINGKTLFIGYLEYSDNSPFYLSNRVGTIFYDEYTGTGGDVISMITTADNFDLIREDLSVYGKIVHRQVQEIEAESINGPPRLTEMQEKVLRNAFEMGFFNYPKDVHLKDIAQKIGVSAVSVDQYLREAQRKLIRAYLNG	not soluble
MSLMKCLLVSSVEGYSGKSGIIIALGLKLREMGYEVGYFKALGVNTVKVGDRAVEEDSLITAKILGVEEDVCPVVLDRPYIDFATSVDPVVLRKAVLDRFTEVSEGKDVVIVEGSQNYRTGVAVGIDDASVAKMLSAKVLLVGKYVNDFVVDEVLAAKSAFGTMLEKVVFNQVSGYKMSYIEGIARKVLNEAGLDIVGAIPRNPVLAGLSVEEIREAVSGEYLIEPREEKMVEQVVIGAMSPQSALRYLREARNAALVTGGDRSDLLLTALEMPNVRCLILTGNLEPVQLVLTKAEERGVPVILTGHDTLTAVSRLESVFGRTRIRGEPKVGIMRELFESHVNVKTIIEYLGLDEGHHHHHH	soluble
MSLLQRDLVNTTGFLRMIMEHNYEKFASVYDAVMDDSLYDLWTDFSLRHLPKSKGRNRLLELACGTGIQSVRFAQAGFDVTGLDLSQDMLAIAKKRAQSAKKKIDFIQGNMLDLSQVGQFDFVTCYSDSICYMQDEVDVGDVFKEVYDVLANDGIFIFDVHSTYQTDECFPGYSYHENADDFAMVWDTYADEAPHSVVHELTFFIQEDDGRFSRFDEVHEERTYELLTYDILLEQAGFKSFKVYADFEDKEPTKTSKRWFFVAYKEGHHHHHH	soluble
MAFHMPLKELQPVDTSLPEHVVKGAVVIDKEFTIWNHRAVIPSNALHTVFITINLLEQKLTDVVKMAARSMNLSEDDSYGLMADKPKRFITDDNLNSLGSGFILTLCASPDHYVKRITEILTEGNNISQMENAVKTLDEFSLDPALIEAFYRCSSLELLFSLIRDDRVCMSSTLLSTCLRALSSMLELAVGDFTWKSVPNDVVVSMASLVTGKAKREEANTLLAALQMLEQLVIGDDTTRDWILEEVPIETLIRHVEKSDERIALCALSLMNSMIRRCPDDEKRFELIKSLEVVPFRNAVHSSLLRGGGGVRNLNAIEQLVEVQRSLISAYETSPPTDAEVQKILDIESSEDVSEEIREMWKSQIGEHRCGRLAAISMVQFAEKSPQDLRMLISENTMRIEGGKWQLIPMWMRCCDIAAELFRVIPGRDELDRLIVVLFSTETPFPAVFACIVHLFHRTWREMQAKGGEMEKVACVVLEQLRHVLKRREIQDVEELSADLETFSYRAMQEIWREEQLGKENIQLHSEAVIQLKSKLRPKMEELVRINHLNYLKLGAVFRKPQKSKSLAKLAFWHWKLDASEKMLTITGCDGENYVEGVQRDDIRQVWIKDIADVTNNDEIDRKASSSRFTSSPSTQMLRGIRVQLKTTNDMKEGEVLMALTSDETQSVIWLEGLAELIGSKAVKSETDAMVERMLKMELRVRLLNVKLTNPEEKPEIPPIPDDIKSFISKF	not soluble
MAHHHHHHMLRYTPMWRCSAAAMQTLSAWLTDLAEESMAVPSATAADLQTRQNDGQGPTRKTPAQLWRELEDAATHANALRETDTLFSILQCLLLKQQYPTDVHAWARLAKQLLPYSGIEQKSVLHYPGRSDASYRRDGHPGGSSLANLSSSSDPVLTDADGGFGDDGASRRGGGGARRGGEYAVPYSLYPSRETLLLSGGVVPLSARVPCGDGRAISLFVRGFTRFVEGQLGVQPHTQLTSELLQVVKDVSGAVTEALAVNADSLQLELLLPALLDYMELLHVLDLRTATVAACGPLATEEERRDAAGATVRDDEPNGHGRSSPPRPSKPTRFLQNMVHDLAQNAMAGAARGARVVLYYLNECFAAVVEAYQADAAATFTDKMYWAQQRYLLTLTRACMWAISQHYTSATTAALSAASGSVASSPSPHVQGLRPTVATADLVATAPMNAHIQALYDHIDVLFQRNTHADNPLHLTDEEVAQLKEIHTAALLRALRIEEAAPDAYLRRALEVVDRVPASMAIEGELIAGKVRLLELDSDTVDEEGRAAIYDDLLTSLRSLVEMRPRFLRHNGAHHAAGGGAAAAASASTPADGGGGGGEEDEGDGEQLRLDAATQAILQRAHFDVITAFCAAHKEEWSNEAYNILVAHKYHGVKITNDLIRPVLEVFSRRGDCRVFSLVDLCVLYSNEPIDMHTIALLFRTCAAAGDHHRARTFLQLVNEIIHGFLVKCPASVKESLQELKLLDPPPRHLFVSTEDDLVQSALGEQQRTVRRLPTGS	not soluble
MPMFIVNTNVPRASVPDGFLSELTQQLAQATGKPPQYIAVHVVPDQLMAFGGSSEPCALCSLHSIGKIGGAQNRSYSKLLCGLLAERLRISPDRVYINYYDMNAANVGWNNSTFALEHHHHHH	soluble
MDKSLLLELPILLCCFRALSGSLSMRNDAVNEIVAVKNNFPVIEIVQCRMCHLQFPGEKCSRGRGICTATTEEACMVGRMFKRDGNPWLTFMGCLKNCADVKGIRWSVYLVNFRCCRSHDLCNEDL	not soluble
MSSQVEHPAGGYKKLFETVEELSSPLTAHVTGRIPLWLTGSLLRCGPGLFEVGSEPFYHLFDGQALLHKFDFKEGHVTYHRRFIRTDAYVRAMTEKRIVITEFGTCAFPDPCKNIFSRFFSYFRGVEVTDNALVNIYPVGEDYYACTETNFITKVNPETLETIKQVDLCNYVSVNGATAHPHIENDGTVYNIGNCFGKNFSIAYNIVKIPPLQADKEDPISKSEIVVQFPCSDRFKPSYVHSFGLTPNYIVFVETPVKINLFKFLSSWSLWGANYMDCFESNETMGVWLHIADKKRKKYINNKYRTSPFNLFHHINTYEDHEFLIVDLCCWKGFEFVYNYSYLANLRENWEEVKKNARKAPQPEVRRYVLPLNIDKADTGKNLVTLPNTTATAILCSDETIWLEPEVLFSGPRQAFEFPQINYQKYGGKPYTYAYGLGLNHFVPDRLCKLNVKTKETWVWQEPDSYPSEPIFVSHPDALEEDDGVVLSVVVSPGAGQKPAYLLILNAKDLSEVARAEVEINIPVTFHGLFKKS	soluble
MNSTHHYEQLIEIFNSCFADDFNTRLIKGDDEPIYLPADAEVPYNRIVFAHGFYASAIHEISHWCIAGKARREQVDFGYWYCPDGRDAQTQSQFEDVEVKPQALDWLFCVAAGYPFNVSCDNLEGDFEPDRVVFQRRVHAQVMDYLTNGIPERPARFIKALQNYYHTPELTAEQFPWPEALN	soluble
MEALAMAGVDYQEWGLSIEEWELQESVVPLHLLADDFKEEEQEEDHQDNDDDDRVLDGLAVKQSVTRDIRASVGKFIEQSMSHMIVHLKQLKFLTLLLENFLFTHVLDFLL	not soluble
MGSDKIHHHHHHVAKSIAGGVRPGIIIDIEHRLLKQIIVGKQKAAASMFDDLDRELENDANKLAIERDAVFERLSKQIQARQVYEAVSKQLITTVNSTLDNQLASPELLIQHSGINASQMLMLELLQQKNLDLSRLRLLIADLPWLARDLTNMVNSPSFRHKRQQRSDVKVTEIKLVLNFIGVENLRLLIPYYCLRNWLPTGHANLLWTTRKLWRYAMVTGIAAKALAQLNEQDMATAYTSSLLYQLGVSVVLKNGAKVYESIWGNWLREASASRDKELHDAVLATEFPAEDIYQQVLQHAHTLNWRLPELLDFSASGLTQTQRELDTCLSYSELSTEAALVARASCYAKVLMLDEMRLISPKEKQMMFDYYQLSEQEQIRLKGQNYRKLDLY	not soluble
MKKLLFAIDDTEACERAAQYILDMFGKDADCTLTLIHVKPEFMLYGEAVLAAYDEIEMKEEEKAKLLTQKFSTFFTEKGINPFVVIKEGEPVEMVLEEAKDYNLLIIGSSENSFLNKIFASHQDDFIQKAPIPVLIVK	soluble
MKEALEAALREILGPGEVVALRRLPGGASKEAWAVDYRTGEALHPLFLRRAGGGVIYSKTLALAEEFRLLQVAWAHGVKVPEPLHYFPDLEGREAFLMRRLEGETIGARVVRRPELARARETLPQAMAEELAKIHALSPDEVPFLQPPSLPSWRPALKKACRDLNALGKPHPALKWGMRWLLTHPPRELPPVVVHGDFRVGNLLVNGEGLVAVLDWEFAHLGDPREDLAWPLVRAWRFGEDGKRLGGVGEVGPFLERYNALTGRDIAEEELFWWEVLGNVRWGLGALKQARRHLRGEERSVELAVLGRLASEMEYEVLHLLERYG	soluble
GSGSGSDIEAYLERIGYKKSRNKLDLETLTDILQHQIRAVPFENLNIHCGDAMDLGLEAIFDQVVRRNRGGWCLQVNHLLYWALTTIGFETTMLGGYVYSTPAKKYSTGMIHLLLQVTIDGRNYIVDAGSGRSYQMWQPLELISGKDQPQVPCVFRLTEENGFWYLDQIRREQYIPNEEFLHSDLLEDSKYRKIYSFTLKPRTIEDFESMNTYLQTSPSSVFTSKSFCSLQTPDGVHCLVGFTLTHRRFNYKDNTDLIEFKTLSEEEIEKVLKNIFNISLQRKLVPKHGDRFFTI	soluble
MSLLKVREMEREDVERVYEINRESFTTDAWSRFSFEKDFENKFSRRFVLEEDGKVVGYVIFWVVKEEATIMTFAIAPGYRGKGYGEKLLREAISRLGDKVKRVVLDVRKSNLRAINLYKKLGFKVVTERKGYYSDGENALLMELKISRPSEAELSREGHHHHHH	soluble
MQQYAQRDKKHEYWFAVPQERTDHLYAFFIQWSPEIYAEDTGEYTREPGFIVVKKIEESETIEDSSNQAAAREWEITTREDINSKQVATVKADLESESFRPNLSDPSELLLPDQIEKLTKHLPPRTIGYPWTLVYGTGKHGTSLKTLYRTMTGLDTPVLMVIKDSDGQVFGALASEPLKVSDGFYGTGETFVFTFCPEFEVFKWTGDDMFFIKGDMDSLAFGGGGGEFALWLDGDLYHGRSHSCKTFGNRTLSKKEDFFIQDIEIWAFELEHHHHHH	not soluble
MSLARSTPAIVILGQGSLDTARQIQRLYPDSLIHGLAERVEGADRVYHEFGATLRQLYQQDTPIIALCAAGIVIRTLAPLLLEKGAEPPVLAVAEDGSAVVPLLGGLGGVNVMAREIAAGLGVAAAITTSGELRFGTCLLNPPSGYALGDLELGKRFVSDLLGGESVRIEGAAPWLAAAKLPENDQARLTIRVGSAEREPVANELLIYPRSVLVACRGQRLAGEADSDLATHIRQALHQARIAVQSVACLLAADRDMADRALHQAAAQLGVPLRFLPAADSVAELAQQAVPQLLPPLKVGEDIAIAVASQPLDPEQIGRPRGRLAVIGLGPGAAELMVPAVKAELARANDILGYETYVRMAGPFRADQVMHCTDNREEMQRARHAFELAAQGRSVVVVSSGDPGVFAMAAAVIEALHESSDPAWHSVDLEILPGVSASLATAAQAGAPLGHDFCVLSLSDNLKPWDIIEKRLDLASQADLALAFYNPISRSRPWQLGRALEIVRQHRTPQTPVVLGRDIGRPGQTLRVITLGELTPEQVDMRTMVLVGSSTTCVFPRAGGGDWVYTPRWYGNKEGHHHHHH	soluble
